How the values were obtained:
[1] = biological target: EhRGS-RhoGEF (Entamoeba histolytica); test: SPR
[2] = biological target: GST-EhGα1 (Entamoeba histolytica); test: SPR

Substance: EhGα1 (natural protein)
- Kd [1]: 5.2 µM

Substance: EhGα1(Q189L) (natural protein)
- Kd [1]: 110 µM

Substance: EhRGS-RhoGEF (natural protein)
- Kd [2]: 5.7 µM

Substance: EhRacC(Q65L) (from UniProt Q24816 1-194) (natural protein)
- Kd [1]: 34 µM

Source: article PMC3545058
